Series [1] concerns P34 Y92A (Trypanosoma brucei). Put plainly: filter binding. To be noted: Filter binding: 10 mM Tris pH 7.4, 1 mM EDTA, 100 mM NaCl, 100 ug/ml BSA, 30 min, room temperature; 0.05 nM 5S rRNA, 0-300 nM protein; Bmax fixed at 100%.
Series [2] relates to P34 Y174A (Trypanosoma brucei). Put plainly: filter binding. To be noted: Filter binding: 10 mM Tris pH 7.4, 1 mM EDTA, 100 mM NaCl, 100 ug/ml BSA, 30 min, room temperature; 0.05 nM 5S rRNA, 0-300 nM protein; Bmax fixed at 100%.
Series [3] concerns P34 RRM1-RRM2 (Trypanosoma brucei). Briefly: filter binding. To be noted: Filter binding: 10 mM Tris pH 7.4, 1 mM EDTA, 100 mM NaCl, 100 ug/ml BSA, 30 min, room temperature; 0.05 nM 5S rRNA, 0-300 nM protein; Bmax fixed at 100%.
Series [4] concerns P34 R91A, Y92A (Trypanosoma brucei). Briefly: filter binding. To be noted: Filter binding: 10 mM Tris pH 7.4, 1 mM EDTA, 100 mM NaCl, 100 ug/ml BSA, 30 min, room temperature; 0.05 nM 5S rRNA, 0-300 nM protein; Bmax fixed at 100%.
The subject of series [5] is P34 N-terminus-RRM1-RRM2 (lacks C-terminus) (Trypanosoma brucei). Put plainly: filter binding. To be noted: Filter binding: 10 mM Tris pH 7.4, 1 mM EDTA, 100 mM NaCl, 100 ug/ml BSA, 30 min, room temperature; 0.05 nM 5S rRNA, 0-300 nM protein; Bmax fixed at 100%.
The test system of series [6] is P34 F141A (Trypanosoma brucei). Briefly: filter binding. To be noted: Filter binding: 10 mM Tris pH 7.4, 1 mM EDTA, 100 mM NaCl, 100 ug/ml BSA, 30 min, room temperature; 0.05 nM 5S rRNA, 0-300 nM protein; Bmax fixed at 100%.
The subject of series [7] is P34 Y176A (Trypanosoma brucei). Briefly: filter binding. To be noted: Filter binding: 10 mM Tris pH 7.4, 1 mM EDTA, 100 mM NaCl, 100 ug/ml BSA, 30 min, room temperature; 0.05 nM 5S rRNA, 0-300 nM protein; Bmax fixed at 100%.
Series [8] deals with P34 N-terminus-RRM1 (lacks RRM2 and C-terminus) (Trypanosoma brucei). Put plainly: filter binding. To be noted: Filter binding: 10 mM Tris pH 7.4, 1 mM EDTA, 100 mM NaCl, 100 ug/ml BSA, 30 min, room temperature; 0.05 nM 5S rRNA, 0-300 nM protein; Bmax fixed at 100%.
Series [9] deals with P34 RRM2 (Trypanosoma brucei). Put plainly: filter binding. To be noted: Filter binding: 10 mM Tris pH 7.4, 1 mM EDTA, 100 mM NaCl, 100 ug/ml BSA, 30 min, room temperature; 0.05 nM 5S rRNA, 0-300 nM protein; Bmax fixed at 100%.
The test system of series [10] is P34 full length (WT) (Trypanosoma brucei). Briefly: filter binding. To be noted: Filter binding: 10 mM Tris pH 7.4, 1 mM EDTA, 100 mM NaCl, 100 ug/ml BSA, 30 min, room temperature; 0.05 nM 5S rRNA, 0-300 nM protein; Bmax fixed at 100%.
Series [11] has as its system P34 Y60A (Trypanosoma brucei). Briefly: filter binding. To be noted: Filter binding: 10 mM Tris pH 7.4, 1 mM EDTA, 100 mM NaCl, 100 ug/ml BSA, 30 min, room temperature; 0.05 nM 5S rRNA, 0-300 nM protein; Bmax fixed at 100%.
Series [12] has as its system P34 RRM1 (Trypanosoma brucei). Put plainly: filter binding. To be noted: Filter binding: 10 mM Tris pH 7.4, 1 mM EDTA, 100 mM NaCl, 100 ug/ml BSA, 30 min, room temperature; 0.05 nM 5S rRNA, 0-300 nM protein; Bmax fixed at 100%.
In series [13] the target is P34 N-terminus-RRM1 truncate (P34 lacking both RRM2 and the C-terminus) (Trypanosoma brucei). Put plainly: co-IP; immune capture: beads coated with anti-P34/P37 antibody incubated with the recombinant proteins (1 μg each) for 1 hr at 4°C, washed three times in PBS-T, eluted in SDS sample buffer; bound L5 (pellet) detected by western blot with anti-L5 antibody; pellet signal normalised to L5 + P34 FL, set to 1; at least three biological replicates.

In series [14] the target is P34 R88-91K mutated protein (Trypanosoma brucei). The description is as above.
For series [15], the target named is P34 RRM1-RRM2 truncate (the RRM domains alone) (Trypanosoma brucei). The description is as above.
Series [16] concerns the target P34 RRM2 truncate protein (Trypanosoma brucei). Described as above.
Series [17] concerns the target P34 R88-91A mutated protein (Trypanosoma brucei). Described as above.
Series [18] concerns the target P34 N-terminus-RRM2 truncate (P34 lacking the C-terminus) (Trypanosoma brucei). The description is as above.
In series [19] the target is P34 RRM1 truncate protein (Trypanosoma brucei). Described as above.
Series [20] has as its target P34 R91A mutated protein (Trypanosoma brucei). The series is described as above.
Series [21] has as its target P34 R91A, Y92A mutated protein (Trypanosoma brucei). Described as above.

pKd: −log10 of the molar value.

One may read the pKd as the Kd on a negative log10 scale, so that one unit is a factor of ten. Low values mean a high Kd, high ones a low Kd. 5S rRNA: the binding signal (fold affinity increase vs WT) in series [1], in [2], in [4], in series [6], in [7] and in series [11] was 2 in each case. For the same substance, the pKd was 7.17 in series [3]; 7.18 in [5]; 6.99 in [8]; 6.53 in series [9]; 7.52 in series [10]; 7.16 in series [12].

For the substance ribosomal protein L5 (natural protein), the amount of L5 bound relative to P34 full length (set as 1) (relative to P34 full length = 1) in series [13] came to 0.93; in [15] it was 0.64; in series [16], 0.54; in [18], 1.1; in [19], 0.65. In addition, the amount of L5 bound relative to P34 WT (set as 1) (relative to P34 WT = 1) in [14] was 0.75; in series [17], 0.45; in series [20] it was 1.3; in series [21], 1.5.

These data come from article PMC5436847.
